These results are taken from article PMC12709181.

Assay [1] addresses proliferating cell nuclear antigen (PCNA) (yeast) (UniProt P15873).
Assay [2] has the same target. The source holds these as a separate data set.

Chain of proliferating cell nuclear antigen (PCNA) (yeast) (P15873 whole entry): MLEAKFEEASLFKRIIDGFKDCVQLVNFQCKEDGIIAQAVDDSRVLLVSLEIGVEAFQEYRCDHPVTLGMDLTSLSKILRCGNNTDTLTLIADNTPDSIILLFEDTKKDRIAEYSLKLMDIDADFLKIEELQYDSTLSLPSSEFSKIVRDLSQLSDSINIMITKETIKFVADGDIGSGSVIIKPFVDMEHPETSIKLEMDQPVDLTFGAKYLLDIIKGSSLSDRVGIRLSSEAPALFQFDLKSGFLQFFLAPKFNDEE

Regarding “four-subunit yeast Pol ε with the P-domain mutation KKRL736-739AAAA in Pol2 (P3) (from UniProt P21951 1-2222; P24482 1-689; P27344 1-201; Q04603 1-196) (complex)”, in assay [1], the holoenzyme assay: product length of DNA synthesis on single-primed M13mp18 ssDNA with PCNA loaded by RFC (10 and 20 min); much less stimulation by PCNA is 400 bp. Moreover, the processivity assay under single-hit conditions: product length on primed M13mp18 ssDNA upon addition of PCNA (0, 5, 10, 20 min) in assay [2] is 85 nts.

In assay [1], “four-subunit yeast Pol ε with the P-domain mutations D695A, E696A, N698A, K745A in Pol2 (DENK) (from UniProt P21951 1-2222; P24482 1-689; P27344 1-201; Q04603 1-196) (complex)” had a holoenzyme assay: product length of DNA synthesis on single-primed M13mp18 ssDNA with PCNA loaded by RFC (10 and 20 min); stimulated by PCNA, although to a lesser extent than wild-type Pol ε of 3000 bp. In assay [2], this substance registered a processivity assay under single-hit conditions: product length on primed M13mp18 ssDNA upon addition of PCNA (0, 5, 10, 20 min); increase comparable to wild type of 300 nts. Turning to “wild-type four-subunit yeast DNA polymerase ε (Pol2, Dpb2, Dpb3, Dpb4) (from UniProt P21951 1-2222; P24482 1-689; P27344 1-201; Q04603 1-196) (complex)”, in assay [2], the processivity assay under single-hit conditions: product length on primed M13mp18 ssDNA upon addition of PCNA (0, 5, 10, 20 min) stood at 300 nts.
